First the molecules themselves.
B2: GLP (recombinant, full-length, untagged) (natural protein)
chain: MRSVEQQLSIVTEAAVAPEPVRIAIAEALGLMCAEEVQASRALPGFAQAAIDGYAVRAVDVGGEKSLSQQLPVAPPEKSLPVVGEVAAGSQQPLRLQPKQAVMVHTGAPLPMLADAVLPMAWSDRGRKRVTAQRPVRSGEFVRKEGDDIQPGDIAVSAGAVLGPAQIGLLAAVGRSKVLVYPRPRMSVISVGAELVDIDRQPGLGQVYDVNSYSLAAAGREAGADVYRYGIAAGEPRRIKEIIESQMLRSEIIVITGAVGGAGSAGVRQVLNELGDIDTERVAMHPGSVQGFGLLGENKIPCFLLPSNPVASLVIFETFVRPVVRMSLGKSNAARRVVRARALNHVVSVAGRKGFIRSRLMRDAETQDYLVEALGGATGAPSHLLAGLSEANGMIRIPEDVTEIRPGDVVDVIFLAQGR

Data set [1] addresses Biotinylated His-GLPR (C. glutamicum ATCC 13032). Description: BLI. (Biolayer interferometry detects binding as a change in optical thickness at a sensor tip.)
Data set [2] concerns the target B2. Description: BLI.
The data set “crystal structure” deals with the molecule itself. Description: crystal structure.
The target in a further data set is T1, His-SUMO-FtsZ (C. glutamicum, UniProt P94337 1-442).
T1 sequence: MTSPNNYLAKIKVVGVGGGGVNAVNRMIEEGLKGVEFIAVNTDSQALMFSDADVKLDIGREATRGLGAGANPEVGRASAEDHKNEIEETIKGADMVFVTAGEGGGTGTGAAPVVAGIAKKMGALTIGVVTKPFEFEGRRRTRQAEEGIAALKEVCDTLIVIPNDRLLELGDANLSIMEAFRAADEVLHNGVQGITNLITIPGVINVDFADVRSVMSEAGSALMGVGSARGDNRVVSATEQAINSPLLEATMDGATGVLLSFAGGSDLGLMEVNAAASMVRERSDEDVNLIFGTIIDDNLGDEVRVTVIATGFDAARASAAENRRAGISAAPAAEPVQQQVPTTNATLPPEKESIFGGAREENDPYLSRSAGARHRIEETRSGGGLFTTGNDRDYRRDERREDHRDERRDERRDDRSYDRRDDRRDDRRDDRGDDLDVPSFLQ
Description: BLI.

By Kd is commonly meant the constant that tells how readily two partners part at equilibrium. The molecule “Wag31_(1–61) (N-terminal DivIVA domain of Wag31) (domain or fragment)” returned a Kd in data set [1] of 14.9 µM.
The same measure, in the same setting: next, “Wag31 (recombinant, full-length) (natural protein)”: 43.4 µM.

B1: GLPR, C-terminal His-tagged (receptor)
chain: MLHVSGILVIGLIVVVWLVVLAPLLLRGQKPIAKAGEAFDDTRVISEGGSNIPSPRRPGLSSAQLDDEEDTDDVDDDYEIVDSPSIFRPRKEEPVEEDLDTDVELEEDIEVSLETDDYVEPAPVVEVSQEWNVEDHYELDDSYDTPLDHLHPAARARAYEDFQEHQPEQQPEVEEFDADDELTEEDVAFAQRRRGRGYYDPEADREFAASQYVRRQRTLLGLAATVVISVILGFVFGGWVWGLPAVALAATALYLMALRSQVREENALRARRIRRLRRSRMGVRNSEDLPSRLRRPGAVVLELDDESPDFEGLPTVAMPEEPYYEEPRRNIRHLGQRRVS
In the case of B1, in data set [2], the Kd is 0.0055 µM.
For orientation: stoichiometry N means a count of units in the complex or per binding partner. With B2, the “stoichiometry N” value in the data set “crystal structure” turned out to be 2. Besides, in the data set with His-SUMO-FtsZ, the Kd was found to be 4.7 µM.

The record behind these values is paper PMC9915583 (bioRxiv, 2023).
